Data reported in the DeepSol protein solubility set.

test: soluble on expression in E. coli; label from the status in PepcDB or PDB records

Sequence	soluble on expression in E. coli
MGSDKIHHHHHHMTGVQFIDVTDSEAIFDDNQWDAVVLVTHGLDAIAQEELAMLASHGAQVDARVGRSTTLLFAPGLAGGRLIVAPVADGDSDIQDVRGYSDAARQGIKVAFDAGARRPLLIVTPSTQARYAQSMGVAALGCAQALWQSLERREVLGEMDNISQIGLLVDDKAGELLCAIEAGKHLARDLCGTEPERMSAPAFAQYCVDALEGLDLTMSVVEDRDVLERDYPLLSAVGRASFAVSRHQPRVVKLEYKAEGPIERSYFFAGKGVVYDTGGADLKVGGAMAGMSRDKGGAAAVAGLMKTLALLKPKGVRVVAELGLVRNSIGSEAFVTDEIITSHAGVRVRIGNTDAEGRLVLADLLSHLRLKAQDAVAPQLFSVATLTGHVVRAYGGYTAVVENAVARQQQVGDSLQTISEAWGEPIEVSRLRRDDYQKIVDPSGAADVLSSNNAPSSVTARGHQYPAAFLLKASGLEAHGLTSDKPLAYTHVDIAGSATEGDPLYGTPTAAPLVSLCQLIRG	not soluble
GMEAHMKSHNLLEAVRFDDQRFVMELVHESENFKIVSFTFKAGQELPVHSHNIEGELNIVVLEGEGEFVGDGDAVIPAPRGAVLVAPISTPHGVRAVTDMKVLVTIAPPI	soluble
GPGSMLHIDFCIAADAQEALEESGKPNTATVAVPIILEKEVLKLLAPPVCSSDGGFEYDLNATRTLLGAKGATAAYIVVRTAPSTQYVVIYVSDTTSAKNRMLYSTGLSRVVEATPHAQKRTVRISSVSELLPSLFEAESKKVKEALMTESERHHAAIARMEVAPQPVALPGVAVQITTDADDGLSQFAGGAVEVATFKIEAGQLQLDKTVAQLNGNLDQVKSILTDADPRFVLLRYPSPKTQLAEAVMVYVCPPTCSPKIKIQYASSAAAFREQALRHKIQLAHKVETDTTATLADDVRSAFEPFPSADARKTHGRLSSCPPTSWAPKGHSMLI	soluble
MAKVLVLNASYEPLNITSWQRAVVLLIKGKAEQVEHNGKMVYNNFPLPTVIRLRHYVVTPYKEIPLTRRNILHRDGHSCQYCGYTGDELTLDHVIPKSRGGGETWENIVTACVRCNVKKGNRTPKEANMPLRQTPRRPISSLYFEVTKHVRTGTHQEWRKYVIGALEHHHHHH	not soluble
MTTLAIDIGGTKLAAALIDNNLRISQRRELPTPASKTPDALREALKALVEPLRAEARQVAIASTGIIQEGMLLALNPHNLGGLLHFPLVQTLEAIAGLPTLAVNDAQAAAWAEYHALPDDIRDMVFITVSTGVGGGVVCDGKLLTGKGGLAGHLGHTLADPHGPVCGCGRVGCVEAIASGRGMAAAARDDLAGCDAKTLFIRAGEGHQQARHLVSQSAQVIARMIADVKATTDCQCVVIGGSVGLAEGYLEQVRAFLMQEPAPYHVALSAARYRHDAGLLGAALLAQGDTL	not soluble
IQVFVKNPDGGSYAYAINPNSFILGLKQQIEDQQGLPKKQQQLEFQGQVLQDWLGLGIYGIQDSDTLILSKKKG	soluble
MGRGRKHTDAAAEQRELAIKANIVDEPFSVSAIDRSIRKAEWVKTETDQILSGRCPETDGTWLGISTRGRVAFLVEAGTINRDRFNGAESRTLEFLESNESPEDFAKSSAADYIRNKNTAAFHLIVADIASNSMLYISKPRFSDYGIVYTEPVGPGVHTLSSAGLDSDVGYRDLRMRHSFCEMINRERLPPIRDIAEIMYDPVKAYESVLLSSIFFVDMKIGYEHYGTRITTALVVKRTKEVLFFERYREIFNDDWDDHDFAFTII	not soluble
MKNMNKYENCLLCPRKCGINRSTGQTGVCGVSSEIKVARAALHYWEEPCISGKRGSGAVFFSGCSLHCVFCQNREISDGKAGKVISKERLSDIFMELADKGANNINLVTPGQYIPDIVWAVNDAKSRGMKLPIIYNTSGYENVTELKLLEGIVDVYLPDFKYMDSTLSARYSRAKDYPSVAKQALSEMVRQQPDVVIDDATGLIQKGVIVRQLLLPGHVNDAKAVLKYLYDTYHDHVYISMMSQFTPIALKDYPEINRTVTRREYERLVDYALEIGITNAFIQEGDVAKDSFIPAFDCEGV	not soluble
MAHHHHHHMKKSGKGRIKLKIQINTEEEENKENIIYENKNKKRKGSDISDDNDESIEKFKDLDNSYASDRKQKEDNDLEKKIISIISQLTKITCICEDKKNNINNLENEKICKKLIKQMYKYEKYLLQFSNYINENNNHNLDDITFPNGLIKAVDNYINPNVWIYQYLLLETKKQNDSYRNLIQNISTFDSTLKHKILNNDSNHLVNPVYPPLDENLLNSLNNTQQNYYKNVHIPKELSHYYLKSRNKTKED	not soluble
MGFFSSLSSLFGLGKKDVNIVVVGLDNSGKTTILNQLKTPETRSQQIVPTVGHVVTNFSTQNLSFHAFDMAGQMKYRSTWESYFHSSQGVIFVLDSSDRLRMELLKDELMMVMEHKDVVSRGIPIVILANKMDIPGAMTASDITVALGLNLYRSGTWSIHSTCALTGDGLDKAMQQLSAEITKYMESRRT	not soluble
MTIKRVGILGAGKVGIVLAGLALKAGYEVRISGSGSVDKIDLTISTLVPGAIASENAEVVANSDIIILAIPLSRYKNIDPTLLKGKLVIDAMNYWWETDGIREEVLDPTLTSSEQVQNYFKDSTIVKTFNHMGYHNLQEEALPKLEHHHHHH	soluble
MGSDKIHHHHHHMSEAFLRFDGISVEFPGVKALDEVSFSARAGEVHALMGENGAGKSTLLKVLSGVNRPSSGQLWIDGQAHVFANAREALAHGIAIIYQELTLSPNLSVAENLLLGQLPERRGFIDRRTMKARAREILEELGEGDIDPATKVRELSIGQQQMIEIGRALLRDARIIAFDEPTSSLSVQETRQLKRIVARLRDEGRVVLYVTHRMEEVFEMCDAVTVFRDGRHIRTHETLEGLDHDMLVGEMVGRQIDDVYGFRPRDIGDVLMRIDGLQGRGVNEPVNLEVRRGEVLGLFGLVGAGRSELMRLVCGVEKASRGQVALRGETRVFASPHQAIRAGIAMCPEDRKSQGIFPVASVSDNLNISCRRFFRRWGMFRHAARETDNAKTYIQRLSIKTPSHRTPINTLSGGNQQKVILGRWLAEEIDLFVMDEPTRGIDVGARRDIYALLYDLAEQGKGVIVISSDLAEVSSICDRIGVMRDGVLVDIVPREQATQARLLGLALPA	not soluble
MIITKNISLPELYQEWLDLKIMPSNRSDVTKKKYLSRKVTLEKLFGDKPISQIRPSEYQRIMNNYGQRVSRNFLGRLNTGVKQSLQMAIADKVMIEDFTQNVELFSTVKLEHHHHHH	soluble
MGSDKIHHHHHHMIRVLLANPRGFCAGVDRAIEIVERALAMYGAPIYVRHEVVHNRFVVEDLEKKGAVFVENLEEVPEGSMLIFSAHGVSHEVRREAAARKLQIFDATCPLVTKVHVEVAKMDKEGKEIVMIGHQGHPEVEGTMGQIAKSKGTMYLVETAEDVARLQVKNESNLAYVTQTTLSVDDAARVIEALKQRFPKIIGPKKDDICYATQNRQDAVKKLVKLCDLVVVVGSPNSSNSNRLCEVARNENVEAYMVDQAEQLQESWLTNKRCIGITAGASAPEILVQQVLERLEQIAAKQSNQGVIIEELSGVLESVTFPLPKAEPVSFNKYI	not soluble
MNKLNICIDIDGTITSPYHFLPYLNDIFNKNITEAECITHNWEELYGSGIRDVYAEFNNKYIHSYDEAKIVEGATEVISTLSKGHNLSFVTARHECLTDVTKNWLSRQGFSDIDVYLLGSDYKVEKARELSCDIFIEDNPLNSVQLADDGVKVILLDTNYNKDVKHQNIVRVSNWIDIEKIIKQGI	not soluble
MSAGKTGNHLMISDSKLLASAAWDAQSLNELKAKAGEDPAANIRPVARQVEGMFVQMMLKSMRDALPKDGLFSSEHTRLYTSMYDQQIAQQMTAGKGLGLAEMMVKQMTPEQPLPEEPTPAAPMKFPLETVVRYQNQALSQLVQKAVPRNYDDSLPGNSKAFLAQLSLPAQLASQQSGVPHHLILAQAALESGWGQRQIRRENGEPSYNLFGVKASGNWKGPVTEITTTEYENGEAKKVKAKFRVYSSYLEALSDYVGLLTRNPRYAAVTTAASAEQGAQALQDAGYATDPHYARKLTNMIQQMKSISDKVSKTYSMNIDNLF	soluble
MGSDKIHHHHHHMKSELFYRKLEKCDLCPRNCGVNRLMGEKGACGVANSPVVSSWGPHFGEERILVGRGGSGTVFFTYCNLKCVYCQNYEISQLGIGKEITVEDLLRIFTELQDMGVENLNLVTPTHQIPFIVDAFERMEKEIPVVYNCGGYESVDTIISLEGFVDIYMPDFKYSDPELGEKLSGVKDYPRFALEALKVMIDQMGEPVIRNGVMKKGVLVRHLVLPGFLEDSFGVIDLLSTLEPKPLVNIMAQFYPAYRAKEYGLDRFITRDEYLKVVEYAKKKKLNLIEVERWLRWL	not soluble
MTTSPTENAHAVVLGGSVAGCLAAAVLARRYPRVTIVEKSDFHNETGARQSVPQEHHVHLLLQRGKDIMEAIFPGFLSELEQAGALVADLGHDVKWYQAGRWKNRYRCGIHAHYCSRRLIDTHLRRRVARLPQVTVLSRTQMEGLDFRRDGDRLAVGGVRLRNDDHAWTLDADALVDASGRGTRLPGWLETAGLGAVDKSMVKTDLGYASRIYRRRPEFANQWKVLLVLATPPHQRAMGVISPIEGDRWMVTTGGWFGHYPDRDPNAFLKALAALPMPDIHQVIRDAEPLSDVSVFRMPGSLRRHYDRLPRWPDGLLVVGDALASMNPLYSQGMTLCALEAECLDENLDALLAGGLRCQELQEKLCRALDPAWQMAVTEDLRFPETEGERGWRTRFLHWYGAGLTRLSAYHRGALEAQIGVSNLIVNPSRLYAPPIAARIVLGSLLPGEARTLEHHHHHH	not soluble
MGSSHHHHHHSSGLVPRGSHMFKPKKKLGQCFLIDKNFVNKAVESANLTKDDVVLEIGLGKGILTEELAKNAKKVYVIEIDKSLEPYANKLKELYNNIEIIWGDALKVDLNKLDFNKVVANLPYQISSPITFKLIKRGFDLAVLMYQYEFAKRMVAAAGTKDYGRLSVAVQSRADVEIVAKVPPSAFYPKPKVYSAIVKIKPNKGKYHIENENFFDDFLRAIFQHRNKSVRKALIDSSKELNYNKDEMKKILEDFLNTNSEIKNLINEKVFKLSVKDIVNLSNEFYRFLQNRGRL	soluble
VRRDRAPPERGGAGTSQDGTSKNWFKITIPYGRKYDKAWLLSMIQSKCSVPFTPIEFHYENTRAQFFVEDASTASALKAVNYKILDRENRRISIIINSSAPPHTILNELKPEQVEQLKLIMSKRYDGSQQALDLKGLRSDPDLVAQNIDVVLNRRSSMAATLRIIEENIPELLSLNLSNNRLYRLDDMSSIVQKAPNLKILNLSGNELKSERELDKIKGLKLEELWLDGNSLCDTFRDQSTYISAIRERFPKLLRLDGHELPPPIAFDVEAPTTLPP	soluble
MSLDAVKMVKGKVAEIMQNDRLGGLDVLEAEFSKTWEFKNHNVAVYSIQGRRDHMEDRFEVLTDLANKTHPSIFGIFDGHGGETAAEYVKSRLPEALKQHLQDYEKDKENSVLSYQTILEQQILSIDREMLEKLTVSYDEAGTTCLIALLSDKDLTVANVGDSRGVLCDKDGNAIPLSHDHKPYQLKERKRIKRAGGFISFNGSWRVQGILAMSRSLGDYPLKNLNVVIPDPDILTFDLDKLQPEFMILASDGLWDAFSNEEAVRFIKERLDEPHFGAKSIVLQSFYRGCPDNITVMVVKFRNSSKTEEQEGHHHHHH	soluble
GSAGDVTNDLSHVRKIIVACDAGMGSSAMGAGVLRKKIQDAGLSQISVTNSAINNLPPDVDLVITHRDLTERAMRQVPQAQHISLTNFLDSGLYTSLTERLVAAQRHTENEVKVKDSLKDSFDDS	soluble
MIANRPQHEKWAVIVNEFGEVGIDGAALLNDELAVAEIAGGCLCCVAGPQMTATVATLLRREKPDRLLIEASGLAHAAGVIDELRAKPLGEALEVAAVLTLVDPRQFIQPDYHRQPLYRDQISIADVLVANKIDTADIPTMEAFRAQAAALFPPKSLVGEVRDGQLDVAWLDAELAAKPRYRPAVLPDNASAWQSAGWTFDPELNFDGERLTRLFDGLPAKVPGLVRAKGVFRVLDSWVWLNWAAGQWGAAQVSWRRDSRFELIAPEFDAAAVEAWLKECLELEHHHHHH	not soluble
